According to article PMC11008285 (Cell reports, 2024):

Biological target: the molecule itself

B1: full-length CARD9 (natural protein, UniProt Q9H257 1-536, looked up)
chain: MSDYENDDECWSVLEGFRVTLTSVIDPSRITPYLRQCKVLNPDDEEQVLSDPNLVIRKRKVGVLLDILQRTGHKGYVAFLESLELYYPQLYKKVTGKEPARVFSMIIDASGESGLTQLLMTEVMKLQKKVQDLTALLSSKDDFIKELRVKDSLLRKHQERVQRLKEECEAGSRELKRCKEENYDLAMRLAHQSEEKGAALMRNRDLQLEIDQLKHSLMKAEDDCKVERKHTLKLRHAMEQRPSQELLWELQQEKALLQARVQELEASVQEGKLDRSSPYIQVLEEDWRQALRDHQEQANTIFSLRKDLRQGEARRLRCMEEKEMFELQCLALRKDSKMYKDRIEAILLQMEEVAIERDQAIATREELHAQHARGLQEKDALRKQVRELGEKADELQLQVFQCEAQLLAVEGRLRRQQLETLVLSSDLEDGSPRRSQELSLPQDLEDTQLSDKGCLAGGGSPKQPFAALHQEQVLRNPHDAGLSSGEPPEKERRRLKESFENYRRKRALRKMQKGWRQGEEDRENTTGSDNTDTEGS
  stoichiometry N: 4
